Results as given in paper PMC12205980.

Biological target: GP55 (ORF55-encoded replicase of lactococcal phage 1706), full length (lactococcal phage 1706)
Test: SEC-MALS; Superdex 200 Increase 10/300 GL, 20 mM Tris-HCl pH 8.0, 100 mM NaCl, 1 mM TCEP, 0.5 ml/min; Wyatt Dawn Heleos II; self-association of the Ni-NTA-purified protein

Substance: GP55 (ORF55-encoded replicase of lactococcal phage 1706), full length (enzyme)
- stoichiometry N: 2
